The assay addresses soluble CLEC2D antigen, ecto-domain (Q72-V191, H176C) with C-term Histidine tag (human) (UniProt Q9UHP7). Description: flow cytometry on CLEC2D-coated magnetic beads. For orientation: A flow cytometer gives signals particle by particle.
Sequence of UniProt Q9UHP7 (Q9UHP7 72-191 H176C limits assumed): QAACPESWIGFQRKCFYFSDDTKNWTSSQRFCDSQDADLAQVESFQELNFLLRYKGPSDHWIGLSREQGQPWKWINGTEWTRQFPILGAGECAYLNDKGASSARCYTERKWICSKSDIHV

commercial P4500/anti-CLEC2D antibody showed an efficiency of conjugation (antigen-coated beads stained by the antibody) above 90%.
